Patent US6447996

Target: human galanin receptor GalR1 (human) (UniProt P47211)
Assay: competition with 5x10^-11M [125I]galanin on membranes of Cos1 cells transfected with GalR1; Cheng-Prusoff

Chain of UniProt P47211 (P47211 other isoform, or with tags, fused parts or gaps): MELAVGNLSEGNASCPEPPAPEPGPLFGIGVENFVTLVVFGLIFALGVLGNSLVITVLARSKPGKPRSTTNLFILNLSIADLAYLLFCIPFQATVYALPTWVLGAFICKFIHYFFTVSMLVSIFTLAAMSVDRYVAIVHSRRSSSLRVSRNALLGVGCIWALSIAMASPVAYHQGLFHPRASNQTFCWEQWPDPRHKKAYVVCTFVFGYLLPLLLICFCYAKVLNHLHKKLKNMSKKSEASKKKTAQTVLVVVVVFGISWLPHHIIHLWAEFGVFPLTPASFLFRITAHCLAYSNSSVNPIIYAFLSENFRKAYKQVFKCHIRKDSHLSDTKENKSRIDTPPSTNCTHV

Ki: 115 nM
Substance: galanin 2-29 (peptide)
